A short description of the data set: label from the status in PepcDB records.
On to “MASVAAARAVPVGSGLRGLQRTLPLVVILGATGTGKSTLALQLGQRLGGEIVSADSMQVYEGLDIITNKVSAQEQRICRHHMISFVDPLVTNYTVVDFRNRATALIEDIFARDKIPIVVGGTNYYIESLLWKVLVNTKPQEMGTEKVIDRKVELEKEDGLVLHKRLSQVDPEMAAKLHPHDKRKVARSLQVFEETGISHSEFLHRQHTEEGGGPLGGPLKFSNPCILWLHADQAVLDERLDKRVDDMLAAGLLEELRDFHRRYNQKNVSENSQDYQHGIFQSIGFKEFHEYLITEGKCTLETSNQLLKKGIEALKQVTKRYARKQNRWVKNRFLSRPGPIVPPVYGLEVSDVSKWEESVLEPALEIVQSFIQGHKPTATPIKMPYNEAENKRSYHLCDLCDRIIIGDREWAAHIKSKSHLNQLKKRRRLDSDAVNTIESQSVSPDHNKEPKEKGSPGQNDQELKCSV”, for which the protein production result was “failed”.
As for “FETRAKGRSGEALRSLLNLGAKDAAIIRDNREVRIPIQSLQVGDVFVVRPGEKIATDGVVVEGTSAVDQSMITGESVPVEVAQGSHVTGATMNTSGRLLVTAQRVGADTTLAAMGRLVAEAQSNKAPVQKLVDKISQ”, the entry is “failed”; as for “MNKAGARASDQETRRFGFVEWFRPGDYERAEVALPDILESGASYLRTHLSWAEYLAPGGQQWFDWLIPRIGGQIDLLPCIHYTPPSLSRTGRSSGPPVNLKSYADFVDHVLTRYGRYISHIELWNEPNNLLDWDWRHDSDFLLFCEMVGGAAYWAKQRGYKPVLGGPCPFDPYWLNLMGTRGVLGVVDAVGFHGFPGTWDSEEATWGGWDMHLGEMRGIIDRYNADAEIWITETGYSTWRNDEIEQARRFTKALKVPADRMYWYSWRDVPPDVPVQEGLWFDPRHYHLGAVSHDNKPKLLARLLTEGGVKRLEEVAALAAPNITSGAAPIIVTGGSGFVGCNLADRLLSDGEDVIILDNLARSGVDQNLSWLKERHGGRVHPVLADVRDLLGIEAAFRDAKAVFHYAAQTAVTTSLVDPLEDFETNARGTLNVLESIRRAGKRAPIIFASTNKVYGALDDLGMIELDDRYLPEDESIRTLGIGEDRPLDFCTPYGCSKGVADQYILDYAKSYGIPAAVLRMSCIYGPRQFGTEDQGWVAHFLIRALGGEPISIYGDGKQVRDILHVDDAVAAYRVLLSNIGQVSGKAFNLGGGPRNAVSVLAVLREIEELAGRPVETSFGPWRAGDQLYFVADTTRLEQETGWQAGIGWRHGLRHLAEWLIAHRFGGRQIRREKRKASA”, “failed”; as for “MSDFNLVGVIRVMPTDPDVNLDELEEKLKKVIPEKYGLAKVEREPIAFGLVALKFYVLGRDEEGYSFDEVAEKFEEVENVESAEVETVSRI”, “not failed”.
For “MPQPGLTTPDNDALPWQTTLLLALQHVLVVAATPITSVFLIAKALHFTDTVTASVLSATFLMCGLGAILQSLGVKGVGARLPFIMVPGGAPIAIFVAIALQTNIQTAIGAVILTSLFYFIALPIFRRCLHHFPPFIIGIMLLMVSINLIRLYGGLIIGQPGSADFAHPTSIILSLGTILITLIFALAFSGILRQLAVMFGLLAGTLLGMALGSTDFSGVSHGPLFSFPQLLPFGWPIFDLSASLPLLIYAVISMAEATGQTIATAEIVNSTQNVQQAIPRTIRGDAVMSLLGGIFGTSLIITSGENIGVVRTTNVKSRFVTAAAGGLLILIAIFAPLVRLATCLPGSVVCGTAVIVFSIIGVIGIDMIAREPLHTPGKTYALAMGLAMGMLPILVPGLYQNFPAGVQMVFGNGMAAGTLTAILVNSLFNWSEKRTQARVKS”, the protein production result is “failed”.
For “MGSGHILGTSRLPKETWMANAECFVLMLPLRECAGRCHVCLKTAYTMRHRLIECLSAYSPSFKTGRGCGCELDETYFPESFKGNHTKGSFTMPRHSRHRGKQVHRRGLSREQICVMTGVNDSNETFLQVSGRGILSRKRAMDVLRDRIASASVVATDKASAYVDVLAELEVDAHTAYDSKDPSEGTINRINTVHSLLDTFMKPFKGVSTKHLGTYLAWFKWCRTFMATDSGTAERTVARQLANGVCRSRIHDMFNVLPP”, the protein production entry is listed as “failed”.
As for “MTEKSQEPTAALDAEQVAAYLSQHPEFFVEHDELIPELRIPHQPGDAVSLVERQVRLLRERNIEMRHRLSQLMDVARENDRLFDKTRRLVLDLLDATSLEDVVSTVEDSLRHEFQVPYVSLILFSDSSVSVGRSVSSAEAHQAIGGLLSGGKTVCGVLRPHELAFLFGESDRDEIGSAAVVSLSFQGLHGVLAIGSPDPQHYKSSLGTLFLGYVAEVLARVLPRFSSPLRSVR”, the protein production entry is “not failed”.
As for “MNLEPLRKRVRQYLDQQQYQSALFWADKVASLSHEEPQDVYWLAQCLYLTAQYHRAAHALRSRKLDKLYEACRYLAARCHYAAKEHQQALDILDMEEPINRRLFEKYLKDDNGSRDPSSDWEMSQSSIKSSICLLRGKIYDALDNRTLATYSYKEALKLDVYCFEAFDLLTSHHMLTAQEEKELLDSLPLNKLCAEEQELLRFVFENKLKKYNKPSETVIPESVDGLQENLDVVVSLAERHYYNCDFKMCYKLTSTVMEKDPFHANCLPVHIGTLVELNKANELFYLSHKLVDLYPSNPVSWFAVGCYYLMVGHKNEHARRYLSKATTLEKTYGPAWIAYGHSFAVESEHDQAMAAYFTAAQLMKGCHLPMLYIGLEYGLTNNSKLAERFFGQALSIAPEDPFVIHEVGVVAFQNGEWKTAEKWFLDALEKIKAIGNEVTVDKWEPLLNNLGHVCRKLKKYAEALDYHRQALVLIPQNASTYSAIGYIHSLMGNFENAVDYFHTALGLRRDDTFSVTMLGHCIEMYIGDSEAYIGADIKDKLKCYDFDVHTMKTLKNIISPPWDFRDFEVEKQNTEEAGLAPLQNSTKAPESRPNLEETFEIEMNESDMMLETSMSDHST”, the protein production result is given as “failed”.
As to “MRVVRGDVARRALSIGWPLVVADSALSIAWIVDTYFVGGLGSESIAAVGAAGYLIWLYMVFSTLVYMGVLVILGQAIGSGNRGLVERAAGEGLTLSILLSIIVCAAAFAASKQLLVVLAPEVDQLAWEYLSVSLLTVALHYVTILYDAVFRALGKTMPILYSSGVFTLANTALDPILIYGRLGAPALGVEGAAWASVAASLLGLLVLVYLSRYLDVGLRPLRPTSVSRSILALGFPSMVERVVFVVGNVVYLGSVSRCGADALAAHTIGVRIESLAFLPLFSIATASGVMVGWEVGAGRIAESKSTGWELIKLSSLIGLVVGAALALGGWLVTPIFTGDPRVAWLAALYLVIAGLTEPLLGVVMVAGQIIRNAGDTRTPTLVNLGSLYILRVVPAYLLPGLMPTGLCVLGAWLAMGIDIVGRAAAIVFIYLRYYTRLARRVA”, the protein production entry is given as “failed”.
The value for “MQHLDLQVVRKALKWSVGGERVWFCTVLTTYGSAPRAPGSLLAVNASGEWIGSLSGGCVEDDFLERVAAGGFPDPAVIVRYGEGDDPNSNIRLPCGGILDVLVENLAPDCDVQAHLRELESALLGQRRLLREVELGSGARSLRDDSSHGPRAERDGECVRLRVGAAQRLLLAGYSSVAHACAEFGKGLGFEVILCDPREEALRGVVLEGIEIRRELPSLFIADGGCHADTAVVALTHDPKIDDLAMLEAVRTEAFYIGVMGSRATSEKRFERLRRIGGLGDAELARIHAPIGLNLGSKTPAEIALAVLADILRIRNGIPRERL” was “failed”; that for “MDGQQLNRLLLEWIGAWDPFGLGKDAYDVEAASVLQAVYETEDARTLAARIQSIYEFAFDEPIPFPHCLKLARRLLELKQAASCPLP” was “not failed”.
As for “MQSATDVAEYCKYDGFDGLKRAISLSDEEILNELDIAHLRGRGGAAYPLGKKWRHLYHAKGTTKYIVCNADEGEPGTFKDKVLLSEDPLSVIEGMIIAGYLFSAKAGYIYMRGEYRRIQKTFQEALDNARQAGFLGENILGIEGFNYDITIISGAGAYICGENSALLNSIEGKTGRPRVKPPHLADVGLYLQPTLVNNVESFASVPVILREGGQAFLEMGTADGGGTKLICLSGHIKNRGLYEVNLGTPLEEIIYGEQYGGGSATGRALKFIHFGGQSGPIGAVATLRDCLYSYEDLWAHDLSVGSGAIVVMDDSVNVVDYLVHVAAFFAHESCGKCTPCRLGTTRILELLSKFNRNEATASDLPRLEKMLTHVTRLSACGLGQSVANPMKSALALFPEEFETTAETEIYATSKGGWLEHHHHHH”, the entry is “not failed”.
As to “MLAELFAVMAPVLFGAGVGYVWVRLGHAYPTEFVSRIVFNIGSPCLILATLAHTRVDLHSFGRMALASALICVCMAALGWAAARLGRQEWQVLVPAYSFPNVGNMGLPVCLYAFGEAGMTLAVAFYLIMSIGNFSLGVFWMSGERSWRSLLGNPILLSVLLALLLMGLDLQLPRWMANTVDLMAGLTIPLMLITLGVSLASIRPRQLGNGFFYGGLRLLLGALVGWSVALALQLPPLAQGVLVVQSSMPVAVFNYLYALRGNRSPDQVASLVLCSTLLSFAFIPLLLTWWLPALR”, the protein production entry is given as “failed”.
For “MAESPTEEAATATAGAGAAGPGSSGVAGVVGVSGSGGGFGPPFLPDVWAAAAAAGGAGGPGSGLAPLPGLPPSAAAHGAALLSHWDPTLSSDWDGERTAPQCLLRIKRDIMSIYKEPPPGMFVVPDTVDMTKIHALITGPFDTPYEGGFFLFVFRCPPDYPIHPPRVKLMTTGNNTVRFNPNFYRNGKVCLSILGTWTGPAWSPAQSISSVLISIQSLMTENPYHNEPGFEQERHPGDSKNYNECIRHETIRVAVCDMMEGKCPCPEPLRGVMEKSFLEYYDFYEVACKDRLHLQGQTMQDPFGEKRGHFDYQSLLMRLGLIRQKVLERLHNENAEMDSDSSSSGTETDLHGSLRV”, the protein production result is on record as “failed”.
Take “MNGVLEQHWTGEGRRLRAAPAVLCLLLGTALAGCGDMNRFQTAAAPPTVAMPKPKPAVAQTPATEKEHERILASYGGTYDDPRLESLVTKTVDRLVAASDRPDQGYRITILNSGAVNAFALPNGQLYVTRGLLALASDTSELSSVLSHEMAHVLSKHAAMREDQARQAAIVTRVVTDMSNDPDLTALALAKTKLTMASFSRNQEFEADGIGVGISARAHFDPYGAARFLSAMERNAELKAGKTSLDPRAQDFTSSHPATPERVQNAQTIARQYVAPEGGERDRESYLAAIDNLVYGEDPERGFCPRPAFPASEARLHLPGAGQFHARQHRAGGDRRARRRLAGDALRRGAGAGRAVARRLPQFGLDGRRREGVHGRHHHQRLPGRVRHRQGRPVAVQGLCAAFRQRRLPLHLRGTAEVDRERAQCARDRQLVPSPDPRRDPGRPPAAHQGDHRAARRHRGIALPPHGRRRSPRRALPRAQRPRSQRAGEGEGSREGRGGLTLREARVIPGRLARTRDLEPRRHCRRVGKA”: the protein production entry is on record as “failed”.
In the case of “MGHHHHHHSHMSSRGHSTLPRTLMAPRMISEGDIGGIAQITSSLFLGRGSVASNRHLLQARGITCIVNATIEIPNFNWPQFEYVKVPLADMPHAPIGLYFDTVADKIHSVSRKHGATLVHCAAGVSRSATLCIAYLMKFHNVCLLEAYNWVKARRPVIRPNVGFWRQLIDYERQLFGKSTVKMVQTPYGIVPDVYEKESRHLMPYWGI”, the protein production result is recorded as “failed”.
With “MSQVASLLIALPLISAFFVPVLKQIKKSLIFPYLTLITLLQTGIAGWVFYEVYTTGKPILIYAGGWRPPVGINLYIGPFAALFILIIAIVSFLTSLFSMRMVKVEPIDKYAMLFLLLMLGATGMIATGDIFNLFVFMEITAITAYALTAYNKTGEAAEASMKYMILGGIGSSFFLIGVALIYGVTGTLNMAQLAEFASAGKIMPVVAQVGLSLIIFGLAVEAELFPLNAWAPDAYQAAPHPITVMFSAFVVKAGLYAMARILYLLQKVNGWDSVLKLLLIMATLTVIFAELSALRQKDVKRMIAYSSIGQVGLIALAFSLGTQAGVDAGVFHMLNHAIVKTMMFLGVGYVGVMVGGTRIEDFRGLGKRMPLTALSLSVGAISTVGVPLFNVFWSKFRIIVATIQAGFVWPAVLVLFASVVEAVYYFRLLHVMWFAGEGERIKEGWIVVFLLLLALIIVGIGIYPTPVWEIVKRAGSDIFAVKVYINNVPLLGVVQ”, the protein production result is “failed”.
As for “YATGNKKNISGSVEKITELGMNKDQITNPLEAIRGRVPGLTIQKGTNGPAALDAVRLRGTTSLTSGNDPLIIVDGVFGDLSMLTSIYPTDIESFTILKDASETAQYGSRGASGVIEITTKKGIRG”, the entry is “failed”.

For the origin of these results see a protein production outcome set (Wang et al. 2014).
